7 molecules from patent US20210261685A1 (Alector, published 2021) can be followed below.

Broadly, the Kd is the equilibrium constant for the complex coming apart. Higher therefore signals lower affinity. A word on the IC50: it is the concentration that inhibits the measured activity by half.

Assay [1] addresses T1, human MerTK endogenously expressed on cells (SK-MEL-5 cells; human macrophages) (human, UniProt Q12866 21-999).
T1 sequence: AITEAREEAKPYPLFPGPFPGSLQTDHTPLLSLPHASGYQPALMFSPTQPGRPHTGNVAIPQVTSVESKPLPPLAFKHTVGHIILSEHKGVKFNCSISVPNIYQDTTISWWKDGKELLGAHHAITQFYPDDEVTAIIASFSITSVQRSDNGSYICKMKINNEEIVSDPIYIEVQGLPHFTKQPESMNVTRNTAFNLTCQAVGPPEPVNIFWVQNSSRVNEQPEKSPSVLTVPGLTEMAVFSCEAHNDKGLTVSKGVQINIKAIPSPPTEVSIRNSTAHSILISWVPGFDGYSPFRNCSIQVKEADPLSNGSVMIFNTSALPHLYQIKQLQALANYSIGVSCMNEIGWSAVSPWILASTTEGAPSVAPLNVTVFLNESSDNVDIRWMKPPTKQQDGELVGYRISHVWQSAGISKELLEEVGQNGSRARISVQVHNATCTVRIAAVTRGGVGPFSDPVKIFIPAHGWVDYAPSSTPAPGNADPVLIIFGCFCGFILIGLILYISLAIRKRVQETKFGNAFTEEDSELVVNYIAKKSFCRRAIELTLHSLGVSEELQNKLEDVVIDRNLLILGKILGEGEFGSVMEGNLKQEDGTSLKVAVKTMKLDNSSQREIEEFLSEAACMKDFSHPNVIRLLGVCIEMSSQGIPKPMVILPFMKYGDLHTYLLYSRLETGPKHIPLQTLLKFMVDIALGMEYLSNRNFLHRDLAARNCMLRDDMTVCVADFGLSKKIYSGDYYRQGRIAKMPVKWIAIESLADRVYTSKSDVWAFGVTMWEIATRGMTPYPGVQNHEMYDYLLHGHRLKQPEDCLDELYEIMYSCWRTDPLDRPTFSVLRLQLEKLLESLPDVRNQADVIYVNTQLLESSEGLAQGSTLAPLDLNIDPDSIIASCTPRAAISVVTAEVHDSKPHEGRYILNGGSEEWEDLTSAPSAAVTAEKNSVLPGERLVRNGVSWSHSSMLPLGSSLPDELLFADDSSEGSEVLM
Put plainly: cell-based or functional assay.

Assay [2] addresses T1, human MerTK endogenously expressed on …. Put plainly: flow cytometry on SK-MEL-5 cells, Prism fit. The method, then:
To determine whether recombinant anti-human MerTK antibodies of the present disclosure bind to human MerTK endogenously expressed on SK-MEL-5 cells and to CHO cells overexpressing mouse MerTK (CHO-muMerTK OE cells), the following experiments were performed. SK-MEL-5 cells and CHO-muMerTK OE cells were plated at 40,000 cells/well. Anti-MerTK antibodies were titrated to a final concentration range of between 66.6 nM to 4 pM and then added to the cells. After 30 min on ice, cells were washed and then stained with APC-conjugated mouse anti-human Kappa antibody (Southern Biotech Cat #9230-11, Birmingham, Ala.) and a viability die (Life Technologies) in the presence of Fc block solution on ice for 30 minutes, and then washed twice with cold FACS buffer (2% FBS in PBS). Cells were fixed with 4% paraformaldehyde in PBS. Stained cells were acquired on a BD FACS Canto II cytometer and the mean fluorescence intensity (MFI) was calculated with FlowJo software and K value was calculated with Prism software. […] A lower Kd value reflects higher binding of antibody to cells.
In general terms: A flow cytometer gives signals particle by particle.

Assay [3] deals with T2, Recombinant human MerTK human Fc Chimera protein (R&D systems, Cat #391-MR-100) (human, UniProt Q12866 26-499, limits assumed).
T2 construct: Bought; also called recombinant human MerTK protein; MerTK-Fc
T2 sequence: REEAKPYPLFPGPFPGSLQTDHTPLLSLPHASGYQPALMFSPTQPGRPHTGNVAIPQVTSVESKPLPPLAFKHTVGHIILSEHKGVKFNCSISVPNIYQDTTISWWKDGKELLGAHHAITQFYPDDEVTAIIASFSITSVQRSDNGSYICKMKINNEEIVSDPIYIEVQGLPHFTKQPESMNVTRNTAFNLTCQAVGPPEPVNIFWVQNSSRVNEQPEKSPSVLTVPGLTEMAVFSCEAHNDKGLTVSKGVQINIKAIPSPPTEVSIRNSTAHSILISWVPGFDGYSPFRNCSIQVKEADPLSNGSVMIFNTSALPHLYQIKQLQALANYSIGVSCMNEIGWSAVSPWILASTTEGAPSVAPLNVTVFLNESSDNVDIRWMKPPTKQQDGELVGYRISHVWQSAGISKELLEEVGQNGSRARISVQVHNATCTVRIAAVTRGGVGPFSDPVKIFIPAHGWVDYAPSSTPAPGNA
Kind of assay: competition ELISA, His-Gas6 on captured MerTK-Fc. The method, then:
Rabbit anti-human IgG polyclonal antibody (Jackson ImmunoResearch, Cat #309-005-008) was captured to a high-protein binding plate at 2 μg/ml 4° C. overnight. After washing with 0.05% Tween20 in PBS three times, 5% BSA in PBS was added for 1 hour. Recombinant human MerTK human Fc Chimera protein (R&D systems, Cat #391-MR-100) was added at 2 μg/ml for 1 hour and the plates were then washed. Anti-MerTK antibodies were titrated to final concentration range of between 66.6 nM to 4 pM and then 40 μl of serially diluted antibody and 40 μl of His tag-conjugated recombinant Gas6 protein (R&D systems, Cat #885-GSB-050) at 3 μg/ml or His tag-conjugated recombinant ProS protein (R&D systems, Cat #9489-PS-100) at 20 μg/ml. After a further incubation for 1 hour, plates were washed and incubated for 1 hour with HRP-conjugated anti-6×His tag antibody (Abcam, Cat #ab1187). Plates were then washed and an HRP substrate (TMB) was used to develop the plates. After sufficient color change was observed, the reaction was stopped by adding 50 μl 2N H₂SO₄ and the OD was measured using a spectrophotometer (BioTek).
From these experiments, IC50 values [nM] were determined using OD450 values obtained from the dose-response curves analyzed with Prism software. Table 14 and Table 15 show IC50 values determined for anti-MerTK antibody blocking of Gas6 ligand binding and ProS ligand binding to MerTK. […] Dashes indicate lack of significant blocking; “n.a.” indicates data not available.
On the technique in general: ELISA stands for enzyme-linked immunosorbent assay.

B1: MTK-15 (antibody, human IgG1, V domains shown)
VH: QIQLVQSGPELKKPGETVKISCKASGYTFTNYGVHWVKQAPGKGLKWMGWINTYTGEPTYADDFKGRFAFSLETSASTAYLQINNLKNEDMATYFCARGNRYAYMDYWGQGTSVTVSS
VL: QIVLSQSPAILSASPGEKVTMTCRASSSVSYMHWYQQKSGSSPKPWIYATSNLASGVPARFSGSGSGTSYSLTISRVEAEDAATYYCQQWSSNPRTFGGGTKLEIK
Consider B1, for which the “Gas6-mediated pAKT activity, average IC50, human M2c macrophages” value (shortened to “Gas6-mediated pAKT activity”) in assay [1] was 2.8 nM. In assay [2], this molecule had a Kd of 0.19 nM.

B2: MTK-17 (antibody, human IgG1, V domains shown)
VH: QIQLVQSGPELKKPGETVKISCKASGYTFTNFGMNWVKQAPGKGLKWMGWINTYTGEPTYADDFKGRFAFSLETSASTAYLQINNLKNEDTATYFCSRGAVLRAGAMDCWGQGTSVTVSS
VL: DIQMTQSSSYLSVSLGGRVTITCKASDHINNWLAWYQQKPGNAPRLLISGATSLETGVPSRFSGSGSGKDYTLSITSLQTEDVATYYCQQYWSTPRTFGGGTKLEIK
In the case of B2, the “Gas6-mediated pAKT activity” value in assay [1] came out at 3.42 nM. In assay [2], the Kd worked out at 12.7 nM. The IC50 in assay [3] is 14.5 nM.

B3: MTK-20 (antibody, human IgG1, V domains shown)
VH: QIQLVQSGPELKKPGETVKISCKASGYTFTNYGMTWVKQAPGKGLKWMGWINTYTGEPTYADDFKGRFALSLETSASTAYLQINNLKNEDTATYFCARGGGRLGLRPLDYWGQGTTLTVSS
VL: DIQMTQTTSSLSASLGDRVTISCRASQDINNYLNWYQQKPDGTVKLLIYYTSRLHSGVPSRFSGSGSGTDYSLTISNLEQEDIATYFCQQGNTLPWTFGGGTKLEIK
On to B3, for which the “Gas6-mediated pAKT activity” value in assay [1] worked out at 1.48 nM. In assay [2], the Kd was 0.11 nM. For the same molecule, the IC50 in assay [3] was 4.96 nM.

B4: MTK-18 (antibody, human IgG1, V domains shown)
VH: QIQLVQSGPELKKPGETVKISCKASGYTFTHYGMTWVKQAPGKGLKWMGWINTYTGEPTYADDFKGRFAFSLETSASTAYLQINNLKNEDTATYFCARGGGQLGLRPLDYWGQGTTLTVSS
VL: DIQMTQTTSSLSASLGDRVTFSCRASQAISNYLNWYQQKPDGTVKLLIYYTSRLHSGVPSRFSGSGSGTDYSLTISNLEQEDIATYFCQQGNTLPWTFGGGTKLEIK
On to B4, for which the “Gas6-mediated pAKT activity” value in assay [1] turned out to be 1.3 nM. In assay [2], this molecule yielded a Kd of 0.38 nM. Further, the IC50 in assay [3] is 4.22 nM.

B5: MTK-12 (antibody, human IgG1, V domains shown)
VH: QVQLQQSGPQLVRPGASVKISCKASGYSFTSHWMHWVKQRPGQGLEWIGMIDPSDGESRLNQKFKDKATLTVDKSSSTAYMQLSSPTFEDSAVYYCARGIYYYGITYAMDYWGQGTSVTVSS
VL: QIVLTQSPAIMSASPGEKVTMTCSASSSVSYMYWYQQKPRSSPRLLIYDTSNLASGVPVRFSGSGSGTSYSLTISRMEAEDAATYYCQQWSSYPLTFGAGTKLELK
With B5, in assay [1], the “Gas6-mediated pAKT activity” value was determined as 1.28 nM. In assay [2], this molecule came in with a Kd of 0.009 nM. The IC50 in assay [3] came to 26 nM.

B6: MTK-03 (antibody, human IgG1, V domains shown)
VH: DVQLQESGPGLVKPSQSLSLTCSVTGYSITSGYYWNWIRQFPGNTLEWMGYMSFDGDNKFNPSLKNRISITRDTSKNQFFLRLNSVTTEDTATYYCARGGYNYGSTEANWGQGTLVTVSA
VL: QIVLTQSPAIMSAFPGEKVTITCSASSSVNYMHWFQQKPGTSPKLWIYSTSNLASGVPARFSGSGSGTSYSLTISRMEAEDAATYYCQQRSSYPFTFGSGTKLEIK
B6: the “Gas6-mediated pAKT activity” value in assay [1] amounted to 19 pM. In assay [2], this molecule registered a Kd of 2.64 nM. In addition, the IC50 in assay [3] came to 8.53 nM.

B7: MTK-07 (antibody, human IgG1, V domains shown)
VH: DVQLQESGPGLVKPSQSLSLTCSVTGYSITSGYYWNWIRQFPGNTLEWMGYMSFDGDNKFNPSLKNRISITRDTSKNQFFLRLNSVTTEDTATYYCARGGYNYGSTEANWGQGTLVTVST
VL: QIVLTQSPAIMSAFPGEKVTITCSASSSVTYMHWFQQKPGTSPKLWIFSTSNLASGVPARFSGSGSGTSYSLTISRMEAEDAATYYCQQRSSYPFTFGSGTKLEIK
With B7, the “Gas6-mediated pAKT activity” value in assay [1] was found to be 0.371 nM. Further, in assay [2], binding was put at a Kd of 3.21 nM. Further, the IC50 in assay [3] is 7.97 nM.
